Results taken from patent US20260242735A1 (UNIVERSIT T BASEL, published 2026).

Key:
Experiment in all cases: flow cytometry, HEK293-T, alanine scan;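 further: transiently transfected HEK293-T cells expressing single alanine mutants of human CD33 (alanine residues changed to serine), antibody binding fluorescence minus background, relative to wild type CD33, mean of duplicates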
human CD33 F279A = human CD33 F279A (human, UniProt P20138 18-364)
Experimental: (§1) An alanine scan on human CD33 was performed to the determine the residues on CD33 that are involved in binding to the antibodies investigated. […] Briefly, a mutation library of CD33 was created by high-throughput, site-directed mutagenesis. Each residue was individually mutated to alanine, with alanine codons mutated to serine. The mutant library was arrayed in 384-well microplates and transiently transfected into HEK293-T. Following transfection, cells were incubated with the indicated antibodies (IgG or Fab) at concentrations pre-determined using an independent immunofluorescence titration curve on wild type CD33. […] Binding of each antibody to each mutant clone was determined in duplicates. For each point, background fluorescence was subtracted from the raw data, which were then normalized to antibody reactivity with wild type CD33.
(§2) Critical residues for antibody binding (outlined in dark grey) were residues whose mutations led to a binding of the test Abs of less than 20%. Additional secondary residues (outlined in light grey) were identified that led to a binding of the test Abs of between 20 and 40% as compared to the wild type CD33.

human CD33 F280A = human CD33 F280A (human, UniProt P20138 18-364)
Experimental: as §1, §2

human CD33 V282A = human CD33 V282A (human, UniProt P20138 18-364)
Experimental: as §1, §2

human CD33 K288A = human CD33 K288A (human, UniProt P20138 18-364)
human CD33 K288A, sequence (P20138 18-364 K288A limits assumed): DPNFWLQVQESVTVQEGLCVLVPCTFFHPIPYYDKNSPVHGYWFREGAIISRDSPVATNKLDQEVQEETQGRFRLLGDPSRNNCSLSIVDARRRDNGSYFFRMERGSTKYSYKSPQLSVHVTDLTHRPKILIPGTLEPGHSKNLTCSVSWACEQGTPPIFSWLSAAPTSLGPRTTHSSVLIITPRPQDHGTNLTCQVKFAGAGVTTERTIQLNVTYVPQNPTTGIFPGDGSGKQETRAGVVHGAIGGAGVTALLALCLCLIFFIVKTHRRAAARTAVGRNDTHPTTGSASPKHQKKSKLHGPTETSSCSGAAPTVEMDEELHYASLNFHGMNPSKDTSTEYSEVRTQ
Experimental: as §1, §2

human CD33 A290S = human CD33 A290S (human, UniProt P20138 18-364)
Experimental: as §1, §2

human CD33 T292A = human CD33 T292A (human, UniProt P20138 18-364)
human CD33 T292A, sequence (P20138 18-364 T292A limits assumed): as the sequence (P20138 18-364 K288A limits assumed) above, with A271K, T275A counted along it
Experimental: as §1, §2

human CD33 V294A = human CD33 V294A (human, UniProt P20138 18-364)
Experimental: as §1, §2

human CD33 G295A = human CD33 G295A (human, UniProt P20138 18-364)
human CD33 G295A, sequence (P20138 18-364 G295A limits assumed): as the sequence (P20138 18-364 K288A limits assumed) above, with A271K, G278A counted along it
Experimental: as §1, §2

human CD33 D298A = human CD33 D298A (human, UniProt P20138 18-364)
human CD33 D298A, sequence (P20138 18-364 D298A limits assumed): as the sequence (P20138 18-364 K288A limits assumed) above, with A271K, D281A counted along it
Experimental: as §1, §2

human CD33 T302A = human CD33 T302A (human, UniProt P20138 18-364)
Experimental: as §1, §2

human CD33 G304A = human CD33 G304A (human, UniProt P20138 18-364)
Experimental: as §1, §2

human CD33 P308A = human CD33 P308A (human, UniProt P20138 18-364)
Experimental: as §1, §2

human CD33 K309A = human CD33 K309A (human, UniProt P20138 18-364)
Experimental: as §1, §2

human CD33 H310A = human CD33 H310A (human, UniProt P20138 18-364)
Experimental: as §1, §2

human CD33 K313A = human CD33 K313A (human, UniProt P20138 18-364)
Experimental: as §1, §2

human CD33 K315A = human CD33 K315A (human, UniProt P20138 18-364)
Experimental: as §1, §2

human CD33 G318A = human CD33 G318A (human, UniProt P20138 18-364)
human CD33 G318A, sequence (P20138 18-364 G318A limits assumed): as the sequence (P20138 18-364 K288A limits assumed) above, with A271K, G301A counted along it
Experimental: as §1, §2

human CD33 T320A = human CD33 T320A (human, UniProt P20138 18-364)
Experimental: as §1, §2

human CD33 T322A = human CD33 T322A (human, UniProt P20138 18-364)
human CD33 T322A, sequence (P20138 18-364 T322A limits assumed): as the sequence (P20138 18-364 K288A limits assumed) above, with A271K, T305A counted along it
Experimental: as §1, §2

human CD33 S323A = human CD33 S323A (human, UniProt P20138 18-364)
Experimental: as §1, §2

human CD33 S324A = human CD33 S324A (human, UniProt P20138 18-364)
Experimental: as §1, §2

human CD33 C325A = human CD33 C325A (human, UniProt P20138 18-364)
human CD33 C325A, sequence (P20138 18-364 C325A limits assumed): as the sequence (P20138 18-364 K288A limits assumed) above, with A271K, C308A counted along it
Experimental: as §1, §2

human CD33 S326A = human CD33 S326A (human, UniProt P20138 18-364)
Experimental: as §1, §2

human CD33 G327A = human CD33 G327A (human, UniProt P20138 18-364)
human CD33 G327A, sequence (P20138 18-364 G327A limits assumed): as the sequence (P20138 18-364 K288A limits assumed) above, with A271K, G310A counted along it
Experimental: as §1, §2

human CD33 A328S = human CD33 A328S (human, UniProt P20138 18-364)
human CD33 A328S, sequence (P20138 18-364 A328S limits assumed): as the sequence (P20138 18-364 K288A limits assumed) above, with A271K, A311S counted along it
Experimental: as §1, §2

human CD33 A329S = human CD33 A329S (human, UniProt P20138 18-364)
Experimental: as §1, §2

human CD33 T331A = human CD33 T331A (human, UniProt P20138 18-364)
human CD33 T331A, sequence (P20138 18-364 T331A limits assumed): as the sequence (P20138 18-364 K288A limits assumed) above, with A271K, T314A counted along it
Experimental: as §1, §2

human CD33 E333A = human CD33 E333A (human, UniProt P20138 18-364)
human CD33 E333A, sequence (P20138 18-364 E333A limits assumed): as the sequence (P20138 18-364 K288A limits assumed) above, with A271K, E316A counted along it
Experimental: as §1, §2

human CD33 M334A = human CD33 M334A (human, UniProt P20138 18-364)
Experimental: as §1, §2

human CD33 D335A = human CD33 D335A (human, UniProt P20138 18-364)
Experimental: as §1, §2

human CD33 E336A = human CD33 E336A (human, UniProt P20138 18-364)
Experimental: as §1, §2

human CD33 E337A = human CD33 E337A (human, UniProt P20138 18-364)
human CD33 E337A, sequence (P20138 18-364 E337A limits assumed): as the sequence (P20138 18-364 K288A limits assumed) above, with A271K, E320A counted along it
Experimental: as §1, §2

human CD33 L343A = human CD33 L343A (human, UniProt P20138 18-364)
human CD33 L343A, sequence (P20138 18-364 L343A limits assumed): as the sequence (P20138 18-364 K288A limits assumed) above, with A271K, L326A counted along it
Experimental: as §1, §2

human CD33 N344A = human CD33 N344A (human, UniProt P20138 18-364)
Experimental: as §1, §2

human CD33 F345A = human CD33 F345A (human, UniProt P20138 18-364)
human CD33 F345A, sequence (P20138 18-364 F345A limits assumed): as the sequence (P20138 18-364 K288A limits assumed) above, with A271K, F328A counted along it
Experimental: as §1, §2

human CD33 C274A = human CD33 C274A (human, UniProt P20138 18-364)
Experimental: as §1, §2

B1: Refmab #5 (antibody, V domains shown)
VH: QVQLVQSGAEVKKPGASVKVSCKASGYTFTNYDINWVRQAPGQGLEWIGWIYPGDGSTKYNEKFKAKATLTADTSTSTAYMELRSLRSDDTAVYYCASGYEDAMDYWGQGTTVTVSS
VL: DIQMTQSPSSLSASVGDRVTINCKASQDINSYLSWFQQKPGKAPKTLIYRANRLVDGVPSRFSGSGSGQDYTLTISSLQPEDFATYYCLQYDEFPLTFGGGTKVEIK
notes: The alanine scan used IgG or Fab
B1 was tested, and the “Mean % WT Binding” value (human CD33 F279A) was 100 % WT binding, the “Mean % WT Binding” value (human CD33 F280A) was 124 % WT binding and the “Mean % WT Binding” value (human CD33 V282A) was 112 % WT binding. The “Mean % WT Binding” value (human CD33 K288A) was 97.9 % WT binding, the “Mean % WT Binding” value (human CD33 A290S) was 118 % WT binding and the “Mean % WT Binding” value (human CD33 T292A) was 85.1 % WT binding. The “Mean % WT Binding” value (human CD33 V294A) was 84.6 % WT binding, the “Mean % WT Binding” value (human CD33 G295A) was 101 % WT binding and the “Mean % WT Binding” value (human CD33 D298A) was 84.5 % WT binding. The “Mean % WT Binding” value (human CD33 T302A) was 77 % WT binding, the “Mean % WT Binding” value (human CD33 G304A) was 79.1 % WT binding and the “Mean % WT Binding” value (human CD33 P308A) was 73.5 % WT binding. The “Mean % WT Binding” value (human CD33 K309A) was 85.7 % WT binding, the “Mean % WT Binding” value (human CD33 H310A) was 91.3 % WT binding and the “Mean % WT Binding” value (human CD33 K313A) was 118 % WT binding. The “Mean % WT Binding” value (human CD33 K315A) was 112 % WT binding, the “Mean % WT Binding” value (human CD33 G318A) was 87.1 % WT binding and the “Mean % WT Binding” value (human CD33 T320A) was 121 % WT binding. For the same binder, the “Mean % WT Binding” value (human CD33 T322A) was 100 % WT binding, the “Mean % WT Binding” value (human CD33 S323A) was 113 % WT binding and the “Mean % WT Binding” value (human CD33 S324A) was 96.6 % WT binding. The “Mean % WT Binding” value (human CD33 C325A) was 107 % WT binding, the “Mean % WT Binding” value (human CD33 S326A) was 107 % WT binding and the “Mean % WT Binding” value (human CD33 G327A) was 98.7 % WT binding. For the same binder, the “Mean % WT Binding” value (human CD33 A328S) was 105 % WT binding, the “Mean % WT Binding” value (human CD33 A329S) was 124 % WT binding and the “Mean % WT Binding” value (human CD33 T331A) was 88.1 % WT binding. For the same binder, the “Mean % WT Binding” value (human CD33 E333A) was 121 % WT binding, the “Mean % WT Binding” value (human CD33 M334A) was 99.4 % WT binding and the “Mean % WT Binding” value (human CD33 D335A) was 86.2 % WT binding. For the same binder, the “Mean % WT Binding” value (human CD33 E336A) was 90.5 % WT binding, the “Mean % WT Binding” value (human CD33 E337A) was 114 % WT binding and the “Mean % WT Binding” value (human CD33 L343A) was 77.8 % WT binding. For the same binder, the “Mean % WT Binding” value (human CD33 N344A) was 87.9 % WT binding, the “Mean % WT Binding” value (human CD33 F345A) was 86.4 % WT binding and the “Mean % WT Binding” value (human CD33 C274A) was 87.4 % WT binding.

B2: Refmab #6 (antibody, V domains shown)
VH: QVQLQQPGAEVVKPGASVKMSCKASGYTFTSYYIHWIKQTPGQGLEWVGVIYPGNDDISYNQKFQGKATLTADKSSTTAYMQLSSLTSEDSAVYYCAREVRLRYFDVWGQGTTVTVSS
VL: EIVLTQSPGSLAVSPGERVTMSCKSSQSVFFSSSQKNYLAWYQQIPGQSPRLLIYWASTRESGVPDRFTGSGSGTDFTLTISSVQPEDLAIYYCHQYLSSRTFGQGTKLEIK
notes: as for B1
With B2 the “Mean % WT Binding” value (human CD33 F279A) was 102 % WT binding, the “Mean % WT Binding” value (human CD33 F280A) was 106 % WT binding and the “Mean % WT Binding” value (human CD33 V282A) was 108 % WT binding. The “Mean % WT Binding” value (human CD33 K288A) was 100 % WT binding, the “Mean % WT Binding” value (human CD33 A290S) was 108 % WT binding and the “Mean % WT Binding” value (human CD33 T292A) was 113 % WT binding. The “Mean % WT Binding” value (human CD33 V294A) was 104 % WT binding, the “Mean % WT Binding” value (human CD33 G295A) was 92.1 % WT binding and the “Mean % WT Binding” value (human CD33 D298A) was 106 % WT binding. The “Mean % WT Binding” value (human CD33 T302A) was 101 % WT binding, the “Mean % WT Binding” value (human CD33 G304A) was 100 % WT binding and the “Mean % WT Binding” value (human CD33 P308A) was 103 % WT binding. The “Mean % WT Binding” value (human CD33 K309A) was 98.8 % WT binding, the “Mean % WT Binding” value (human CD33 H310A) was 94.9 % WT binding and the “Mean % WT Binding” value (human CD33 K313A) was 102 % WT binding. The “Mean % WT Binding” value (human CD33 K315A) was 99.2 % WT binding, the “Mean % WT Binding” value (human CD33 G318A) was 89.1 % WT binding and the “Mean % WT Binding” value (human CD33 T320A) was 100 % WT binding. For the same binder, the “Mean % WT Binding” value (human CD33 T322A) was 110 % WT binding, the “Mean % WT Binding” value (human CD33 S323A) was 106 % WT binding and the “Mean % WT Binding” value (human CD33 S324A) was 97.1 % WT binding. For the same binder, the “Mean % WT Binding” value (human CD33 C325A) was 111 % WT binding, the “Mean % WT Binding” value (human CD33 S326A) was 88.8 % WT binding and the “Mean % WT Binding” value (human CD33 G327A) was 92.1 % WT binding. The “Mean % WT Binding” value (human CD33 A328S) was 94 % WT binding, the “Mean % WT Binding” value (human CD33 A329S) was 92.8 % WT binding and the “Mean % WT Binding” value (human CD33 T331A) was 90.9 % WT binding. For the same binder, the “Mean % WT Binding” value (human CD33 E333A) was 98.7 % WT binding, the “Mean % WT Binding” value (human CD33 M334A) was 107 % WT binding and the “Mean % WT Binding” value (human CD33 D335A) was 98.2 % WT binding. For the same binder, the “Mean % WT Binding” value (human CD33 E336A) was 102 % WT binding, the “Mean % WT Binding” value (human CD33 E337A) was 105 % WT binding and the “Mean % WT Binding” value (human CD33 L343A) was 101 % WT binding. For the same binder, the “Mean % WT Binding” value (human CD33 N344A) was 67.7 % WT binding, the “Mean % WT Binding” value (human CD33 F345A) was 98.4 % WT binding and the “Mean % WT Binding” value (human CD33 C274A) was 92.3 % WT binding.
